# Measurements published in publication PMC5642273.
# B1: (+)-limonene synthase [(+)-LS] (Citrus sinensis) (protein)
# chain: RRSANYQPSIWDHDFLQSLNSNYTDETYKRRAEELKGKVKTAIKDVTEPLDQLELIDNLQRLGLAYHFEPEIRNILRNIHNHNKDYNWRKENLYATSLEFRLLRQHGYPVSQEVFSGFKDDKVGFICDDFKGILSLHEASYYSLEGESIMEEAWQFTSKHLKEMMITSNSKEEDVFVAEQAKRALELPLHWKAPMLEARWFIHVYEKREDKNHLLLELAKLEFNTLQAIYQEELKDISGWWKDTGLGEKLSFARNRLVASFLWSMGIAFEPQFAYCRRVLTISIALITVIDDIYDVYGTLDELEIFTDAVARWDINYALKHLPGYMKMCFLALYNFVNEFAYYVLKQQDFDMLLSIKHAWLGLIQAYLVEAKWYHSKYTPKLEEYLENGLVSITGPLIITISYLSGTNPIIKKELEFLESNPDIVHWSSKIFRLQDDLGTSSDEIQRGDVPKSIQCYMHETGASEEVAREHIKDMMRQMWKKVNAYTADKDSPLTRTTAEFLLNLVRMSHFMYLHGDGHGVQNQETIDVGFTLLFQPIPLEDKDMAFTASPGTKG
# Substrate: CC(C)=CCC/C(C)=C/COP(=O)(O)OP(=O)(O)O
# Assay: purified protein
# Settings: Mn2+
protein,measurement,value
B1,Km,13.1 ± 0.6 µM
